Measured values as given in paper PMC9122598, “NASP maintains histone H3–H4 homeostasis through two distinct H3 binding modes” (Nucleic Acids Research, 2022).

What was measured:
[1] = molecular target: frog NASP.Sc dimer (X. laevis NASP.S a.a. 23–495, Δ97–314; 'NASP.S core') (Xenopus laevis) (UniProt P06180); assay: SEC-MALS; single purified protein on Superdex 200 Increase 10/300 GL; 20 mM Tris pH 7.5, 0.5 M NaCl; room temperature
[2] = molecular target: sNASPc dimer (human sNASP a.a. 30–340, Δ101–159; 'sNASP core') (human) (UniProt P49321); assay: as above
[3] = molecular target: Histone H3 (MBP fusion) 116-135 (Homo sapiens) (UniProt P68431); conditions: cited from earlier work

sNASP, sequence (P49321 2-788): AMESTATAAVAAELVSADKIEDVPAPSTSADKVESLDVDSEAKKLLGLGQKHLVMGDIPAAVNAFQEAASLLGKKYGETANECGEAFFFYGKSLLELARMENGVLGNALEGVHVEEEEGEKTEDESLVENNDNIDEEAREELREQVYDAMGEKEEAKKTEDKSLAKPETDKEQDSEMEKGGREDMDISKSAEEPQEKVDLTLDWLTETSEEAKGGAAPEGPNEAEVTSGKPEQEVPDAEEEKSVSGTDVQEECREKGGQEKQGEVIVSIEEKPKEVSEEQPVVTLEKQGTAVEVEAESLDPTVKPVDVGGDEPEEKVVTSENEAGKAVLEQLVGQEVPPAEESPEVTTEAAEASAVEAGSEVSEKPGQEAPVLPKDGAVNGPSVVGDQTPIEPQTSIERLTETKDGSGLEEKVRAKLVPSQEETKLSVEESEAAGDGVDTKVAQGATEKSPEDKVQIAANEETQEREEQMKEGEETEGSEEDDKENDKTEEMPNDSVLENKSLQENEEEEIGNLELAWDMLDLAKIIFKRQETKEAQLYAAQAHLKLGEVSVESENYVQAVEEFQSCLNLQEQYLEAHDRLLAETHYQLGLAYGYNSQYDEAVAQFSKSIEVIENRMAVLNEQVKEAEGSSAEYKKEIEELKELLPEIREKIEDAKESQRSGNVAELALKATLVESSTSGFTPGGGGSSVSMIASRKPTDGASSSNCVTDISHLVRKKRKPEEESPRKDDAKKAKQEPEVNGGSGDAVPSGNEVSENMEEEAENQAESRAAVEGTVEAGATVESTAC

Substance: frog NASP.Sc dimer (X. laevis NASP.S a.a. 23–495, Δ97–314; 'NASP.S core') (from UniProt P06180 23-495) (domain or fragment)
- stoichiometry N [1]: 2

Substance: sNASPc dimer (human sNASP a.a. 30–340, Δ101–159; 'sNASP core') (from UniProt P49321-2 30-340) (domain or fragment)
- stoichiometry N [2]: 2

Substance: sNASP (from UniProt P49321)
- Kd [3]: 61 nM
